Source: paper PMC4840321

B1: tetherin/BST-2/CD317/HM1.24: N65A (protein)
parent chain: MASTSYDYCRVPMEDGDKRCKLLLGIGILVLLIIVILGVPLIIFTIKANSEACRDGLRAVMECRNVTHLLQQELTEAQKGFQDVEAQAATCNHTVMALMASLDAEKAQGQKKVEELEGEITTLNHKLQDASAEVERLRRENQVLSVRIADKKYYPSSQDSSSAAAPQLLIVLLGLSALLQ
B2: tetherin/BST-2/CD317/HM1.24: kifunensine (protein)
parent chain: B1 parent chain
B3: tetherin/BST-2/CD317/HM1.24: NN-AA (protein)
parent chain: B1 parent chain
B4: tetherin/BST-2/CD317/HM1.24: N92A (protein)
parent chain: B1 parent chain

Legend:
[1] = western blot, SGTA+Vpu-induced rise of 23-kDa species; conditions: glycan lost; control: wild type
[2] = western blot, 23-kDa tetherin level ± SGTA and Vpu; conditions: glycan changed form; control: untreated
[3] = cytosol/membrane fractionation ± SGTA and Vpu, anti-HA blot; conditions: glycan lost; control: wild type 23-kDa species

Protein	expression_or_secretion [1]	expression_or_secretion [2]	localisation_or_trafficking [3]
B1	no change		
B2		no change	
B3	abolishes		no change
B4	no change		
